Source: patent US11549134B2, “Modified amadoriase and method for producing the same, agent for improving surfactant resistance of amadoriase and composition for measuring HbA1c using the same” (Kikkoman Corporation, priority 2013, dated 2023)

Columns and labels:
Assay type in all cases: biochemical
[1] = Surfactant resistance (residual activity) of CcFX variants, 0.01% CTAC; settings: 30°C, 5 minutes, 20 mM potassium phosphate buffer (pH 7.0), crude enzyme, Table 1-2
Procedure: (§1) An amadoriase crude enzyme solution or an amadoriase purified sample is diluted with a 30 mM MES/21 mM Tris buffer solution (pH6.5) so as to have a concentration of about 1.0 U/ml. To this, CTAC (for example, manufactured by Tokyo Kasei Kogyo Co., Ltd.) is added so as to obtain a final concentration 0.01% (w/v) or 0.04%. The resultant mixture is heated at 30° C. for 5 minutes. After heating, the mixture is diluted double with a 10 mM phosphate buffer (pH7.0) containing 0.15% BSA to prepare a sample. The enzyme activities of the sample before and after a surfactant treatment are measured by the method described in Section B above. […] In this manner, surfactant resistance is evaluated.
Using a recombinant plasmid containing CcFX gene (SEQ ID NO: 55) as a starting plasmid, various variants were produced as in the procedures described in (1) and (2) above in Escherichia coli strain JM109 (pKK223-3-CcFX) having the plasmid. […] Subsequently, the surfactant resistance of the modified amadoriases was evaluated according to the measurement method for surfactant resistance described in (4) although under surfactant treatment conditions in which the amadoriases were each diluted in a 20 mM potassium phosphate buffer solution (pH 7.0) and mixed with 0.01% CTAC. […]

[2] = Surfactant resistance (residual activity) of CFP-D multiple variants, 0.04% CTAC; settings: 30°C, 5 minutes, crude enzyme
Procedure: An amadoriase crude enzyme solution or an amadoriase purified sample is diluted with a 30 mM MES/21 mM Tris buffer solution (pH6.5) so as to have a concentration of about 1.0 U/ml. To this, CTAC (for example, manufactured by Tokyo Kasei Kogyo Co., Ltd.) is added so as to obtain a final concentration 0.01% (w/v) or 0.04%. The resultant mixture is heated at 30° C. for 5 minutes. After heating, the mixture is diluted double with a 10 mM phosphate buffer (pH7.0) containing 0.15% BSA to prepare a sample. The enzyme activities of the sample before and after a surfactant treatment are measured by the method described in Section B above. The ratio of activity of the sample after the surfactant treatment relative to the activity of the sample before the surfactant treatment (regarded as 100), i.e., the residual activity (%), is obtained. In this manner, surfactant resistance is evaluated. […]

[3] = Surfactant resistance (residual activity), 0.04% SDS; settings: 30 mM MES/21 mM Tris buffer (pH 6.5)
Procedure: as §1
The stability of CFP-D was evaluated using sodium dodecyl sulfate (hereinafter indicated with “SDS”) in place of the surfactant CTAC used in Example 2. The surfactant resistance of the modified amadoriases was evaluated in accordance with a measurement method for surfactant resistance according to Example 1 although under surfactant treatment conditions in which the amadoriases were each diluted in a 30 mM MES/21 mM Tris buffer solution (pH 6.5) and mixed with 0.04% SDS. In this respect, it was confirmed that when the warmed sample was again measured for activity 30 minutes after 2-fold dilution in a BSA solution, there was no change in the activity value.

[4] = Surfactant resistance (residual activity), 0.04% TTAC; settings: 20 mM potassium phosphate buffer (pH 7.0)
Procedure: as §1
Tetradecyltrimethylammonium chloride (hereinafter indicated with “TTAC”) was used in place of the surfactant CTAC used in Example 2 to evaluate the stability of CFP-D. The surfactant resistance of various modified amadoriases was evaluated in accordance with a measurement method for surfactant resistance according to Example 1, although under surfactant treatment conditions in which the amadoriases were each diluted in a 20 mM potassium phosphate buffer solution (pH 7.0) and mixed with 0.04% TTAC. In this respect, it was confirmed that when the warmed sample was again measured for activity 30 minutes after 2-fold dilution in a BSA solution, there was no change in the activity value.

B1: CcFX: ketoamine oxidase derived from Curvularia clavata, SEQ ID NO: 37 (protein, listed as Curvularia clavata)
chain: MAPSRANTSVIVVGGGGTIGSSTALHLVRSGYTPSNITVLDTYPIPSAQSAGNDLNKIMGIRLRNKVDLQLSLEARQMWREDDLFKEYFHNTGRLDCAHGEEGLADLRQAYQALLDANAGLEETTEWLDSEDEILKKMPLLDREQIKGWKAVYSQDGGWLAAAKAINAIGEYLRAQGVKFGFGGAGSFKQPLLAEGVCIGVETVDGTRYYADKVVLAAGAWSPVLVDLEDQCVSKAWVYAHIQLTPEEAAEYKNVPVVYNGDVGFFFEPDEHGVIKVCDEFPGFTRFKQHQPYGAKAPKRISVPRSAAKHPTDTYPDASEKSIRKAIATFLPKFTEKELFNRHLCWCTDTADAALLMCEHPEWKNFVLATGDSGHTFKLLPNIGKHVVELLEGTLAEDLAHAWRWRPGTGDALKSRRAAPAKDLADMPGWKHDDVVKSKL
- Residual Activity(%) [1]: 27.4%

B2: CFP-D: amadoriase derived from the genus Coniochaeta with E98A, F43Y, G184D, deletion of 3 carboxy-terminal amino acid residues; SEQ ID NO: 3 (protein, listed as Coniochaeta sp.)
chain: MTSNRADTRVIVVGGGGTIGSSTALHLVRSGYAPANITVLDTYEIPSAQSAGHDLNKIMGIRLRNKVDLQMSLEARQMWKEDELFQPFFHNTGRMDCAHTPEGIEDLKKQYQALHDAGAGLEKTHAWLDNEDEILSKMPLLQRDQIQGWKAIWSQDGGWLAAAKAINAIGQFLKERGVKFGFGDAGSFKQPLFDDEGTTCIGVETADGTKYYADKVVLAAGAWSPTLVDLEDQCCSKAWVYAHIQLTPEEAAEYKGVPVVYNGEFGFFFEPDEFGVIKVCDEFPGFSRFKEHQPYGAPSPKRISVPRSHAKHPTDTYPDASEVSIKKAIATFLPRFQDKELFNRALCWCTDTADAALLMCEHPKWKNFILATGDSGHSFKILPNVGKYVVELIEGRLPEEMAYQWRWRPGGDALKSRRAAPPKDLADMPGWKHD
modifications: 3 C-terminal residues deleted
- Residual Activity(%) [2]: 12.7%
- Residual Activity(%) [3]: 11.3%
- Residual Activity(%) [4]: 29.2%
